Measurements reported in patent US11673916B2, “Neuroprotective peptides and methods of their use” (University of Pittsburgh—Of the Commonwealth System of …, priority 2020, dated 2023).

Target: T1, Kv2.1 surface clusters (Mus musculus, UniProt Q03717)
T1 construct: immunohistochemical staining of endogenous Kv2.1 channel distribution; from tissue; host or cells: cerebral cortex of C57BL/6J mice, fixed coronal brain sections
T1 sequence (Q03717 1-857): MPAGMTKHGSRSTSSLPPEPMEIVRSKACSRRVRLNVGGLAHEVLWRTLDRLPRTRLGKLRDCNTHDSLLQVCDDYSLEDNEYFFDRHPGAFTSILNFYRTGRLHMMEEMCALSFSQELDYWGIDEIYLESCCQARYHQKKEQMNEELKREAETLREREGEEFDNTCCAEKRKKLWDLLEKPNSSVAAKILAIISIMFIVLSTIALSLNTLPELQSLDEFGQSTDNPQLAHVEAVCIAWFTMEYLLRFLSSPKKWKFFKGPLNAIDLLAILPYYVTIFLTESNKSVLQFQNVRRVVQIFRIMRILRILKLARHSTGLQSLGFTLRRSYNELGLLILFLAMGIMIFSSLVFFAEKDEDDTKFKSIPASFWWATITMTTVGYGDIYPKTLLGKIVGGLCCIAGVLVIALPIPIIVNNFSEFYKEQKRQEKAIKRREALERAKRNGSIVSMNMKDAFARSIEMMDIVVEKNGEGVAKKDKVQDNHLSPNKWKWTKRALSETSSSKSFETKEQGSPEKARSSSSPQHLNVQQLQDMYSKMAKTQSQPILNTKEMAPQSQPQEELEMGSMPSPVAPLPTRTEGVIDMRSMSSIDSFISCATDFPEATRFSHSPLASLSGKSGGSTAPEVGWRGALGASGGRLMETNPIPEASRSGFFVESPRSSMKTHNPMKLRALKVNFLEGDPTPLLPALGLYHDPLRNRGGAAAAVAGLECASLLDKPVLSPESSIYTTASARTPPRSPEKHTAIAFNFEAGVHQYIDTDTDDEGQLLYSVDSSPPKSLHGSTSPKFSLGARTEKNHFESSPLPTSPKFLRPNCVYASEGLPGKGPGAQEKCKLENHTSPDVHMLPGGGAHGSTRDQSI
Test: Immunohistochemistry of Kv2.1 clusters in mouse cerebral cortex after intraperitoneal peptide injection
Assay type: in vivo
Conditions: 6 nmol/g intraperitoneal, sacrificed 2 hours post-injection, mean±SEM (FIG. 5D)
Method: Eight-week-old C57BL/6J male mice (28-30 g; Jackson, Bar Harbor, Me.) were administered IP injections of 6 nmol/g TAT-DP-2 (n=3) or TAT-Sc-2 peptide (n=3). Two hours post-injection, mice were anesthetized with 3% isoflurane (Henry Schein Animal Health, Dublin, Ohio) in a 3:1 […] gas mixture. Fifty mL of ice-cold 1× sterile PBS was transcardially perfused (5-10 mL/min), immediately followed by 50 mL of 4% sterile paraformaldehyde (PFA; 5-10 mL/min). Brains were removed and placed in 4% PFA at 4° C. for 24 hours, then transferred to 30% sucrose in 1× PBS at 4° C. for 48-72 hours. […]
To analyze Kv2.1 distribution in live primary cortical neurons, cells were transfected with both a tdTomato construct and a GFP-tagged Kv2.1 construct (O'Connell, et al., J Neurosci. 26: 9609-9618, 2006) and imaged on a Nikon A1+ confocal microscope (Nikon, Tokyo, Japan). […] For live images of transfected neurons, object count parameters were customized to define a Kv2.1 cluster as an area of high intensity GFP fluorescence (compared to background), measuring 0.05 μm^2 or larger (Schulien et al., J Physiol (Lond). 594: 2647-2659, 2016). Kv2.1 cluster density was calculated by normalizing the number of Kv2.1 clusters counted to the somatic area of each neuron (#Kv2.1 clusters/μm^2). […]

Row | Sequence | mean Kv2.1 cluster density in superficial cortex
1 | YGRKKRRQRRRDFSSIST [TAT-Sc-2, TAT-linked scramble control peptide] | 565.70±50.72 #Kv2.1 clusters/image field
2 | YGRKKRRQRRRSIDSFTS [TAT-DP-2, TAT-linked declustering peptide 2] | 301.10±39.60 #Kv2.1 clusters/image field
